System: locally-advanced or metastatic pancreatic ductal adenocarcinoma (PDAC)
Assay: Clinical study of MVT-5873 as monotherapy or combined with FOLFIRINOX in pancreatic cancer patients
Format: in vivo, human
Conditions: Group C patients; MVT 5873 0.5 mg/kg in combination with mFOLFIRINOX; one, two or six cycles of therapy
Method: A clinical study is performed comparing the therapeutic effect of the use of the MVT-5873 monoclonal antibody (5B1 monoclonal antibody) as a monotherapy or in combination with FOLFIRINOX in the treatment of pancreatic cancer, in patients with locally-advanced or metastatic pancreatic ductal adenocarcinoma (PDAC). Patients having other CA19-9-positive malignancies may also be included in the study.
The patients will be subdivided into the following groups: • Group A: A Q4 week monotherapy schedule employing a single dose of MVT 5873 administered 7 days prior to Cycle 1 Day 1 • Group B: A Q2 week monotherapy schedule employing a single dose of MVT 5873 administered 7 days prior to Cycle 1 Day 1 • Group C: A Q2 week schedule in combination with mFOLFIRINOX mFOLFIRINOX is a dose amount of FOLFIRINOX, in which FOLFIRINOX is administered at a dose of 65 mg/m^2 oxaliplatin, 400 mg/m^2 leucovorin, 150 mg/m^2 irinotecan, and 1200 mg/m^2 5-fluorouracil.
In certain groups, the patients, after completing the combination therapy will be administered the antibody having the ability to bind CA 19-9 as a monotherapy.
The administration schedule for Group C is depicted in FIG. 1.
A number of patients in Group C have been administered MVT 5873 at 0.5 mg/kg in combination with mFOLFIRINOX (65 mg/m^2 oxaliplatin, 400 mg/m^2 leucovorin, 150 mg/m^2 irinotecan, and 1200 mg/m^2 5-fluorouracil). […]

Substance: MVT 5873: fully human IgG1 monoclonal antibody that targets sialyl Lewis A (sLe^a), an epitope on CA19-9; VH and VL of SEQ ID NO: 2 and 4
- dose limiting toxicities: No dose limiting toxicities

Source: patent US20240190991A1, “COMBINATION THERAPY WITH AN ANTI-CA19-9 ANTIBODY AND FOLFIRINOX IN THE TREATMENT OF CANCER” (BioNTech SE, priority 2021, published 2024)
